Source: patent US20090214535A1

Biological target: monkey Mpl (on BaF3-monkey Mpl cells) (monkey)

hTPO (ligand)
EC50 (read off the curve) [B) BaF-monkey Mpl]: 0.01 nM
